# Results: the DeepSol protein solubility set
# Assay: soluble on expression in E. coli; label from the status in PepcDB or PDB records
row,Sequence,soluble on expression in E. coli
1,MKEKIITYLEEKGKSSVDDLASSLDMAGAQKFPSLIKEISKLESKGKLRFEQDGTISLRKKKEKKDQVTVTGIFRANKAGFGFVSIDEAEEDLFIGRNDVGHAVDGDTVEVAIKKVANRLKGTAAEARVVKIVEHSLKAVVGRFVLDDEKPPYIGYIKSKNQKITQKIYIKKEPIVLDGTEIIKVAIEKYPTRRYDYFVASVEDVIGHQDDVGIDVLEVLESMDIVSEFPDAVLKEAQSVPDAPSEKDLIGRVDLRKEITFTIDGADAKDLDDAVHVKLLDNGNFELGVHIADVSYYVKEGSALDGEALARGTSVYVTDRVVPMLPERLSNGICSLNPNLDRLTQSAIMEIDKHGRVLHYQITQTVINTSFRMTYSDVNAIIAGDKELTEQYDKIVPSIHYMVTLHKILEKMRERRGALNFDTSEAKILVNDKGFPMDIVLRQRGLAERMIESFMLAANECVAEHFAKKNLPFIYRIHEEPKAEKLQKFMDYASIFGVSIQGTASKISQTALQDFMKKIEGQPGSDVLSMMLLRSMQQARYSEYNHGHYGLAAQYYTHFTSPIRRYPDLLVHRLVREYDKANSEKVEHFAQIIPEIASQTSSLERRAIDAERVVEAMKKAEYMEEYVGQEFTGVVSSVVKFGLFVELPNTIEGLIHMTTLPEFYQFNERTLSLQGEKSGKVFRVGQSIKVKVLKADKETGDIDFAYLPSDFDIIEKLSRSKKEKPRPSRRSGDSKTKANKRSKRSALSQKKKKKPFYKEAVKKGGKHGKGSRKRRRSK,soluble
2,MKELHTSELVEVSGGKFHIFAQGGGNLGKKDMVAVGKIGASYSPNNSGVEFSVSKQFGYVQGLGVQFSKPTFGISKKW,not soluble
3,MKERLEHYSTSSIYSGFEVYLPLVLQTITDVIIAENIKSKKETGFKLYEHFTSRIKSEASMIEKCQRKQLPLTSKSALKIIKDSIGIRIICGFIDDIYRMVDLLKSIPGMSVNTEKDYILNAKPNGYRSYHLILELETHFPDILGEKKGCYFIEVQLRTIAQDSWASLEHQMKYKHQVANAEMITRELKRCADELASCDVTMQTIRQLIQETTEEE,not soluble
4,MKESLKDRIRLWKRLYVNAFENALNAIPNVKGVLLAYNTNIDAIKYLDADDLEKRVTEKGKEKVFEIIENPPEKISSIEELLGGILRSIKLGKAMEWFVESEEVRRYLREWGWDELRIGGQAGIMANLLGGVYRIPTIVHVPQNPKLQAELFVDGPIYVPVFEGNKLKLVHPKDAIAEEEELIHYIYEFPRGFQVFDVQAPRENRFIANADDYNARVYMRREFREGFEEITRNVELAIISGLQVLKEYYPDGTTYKDVLDRVESHLNILNRYNVKSHFEFAYTANRRVREALVELLPKFTSVGLNEVELASIMEIIGDEELAKEVLEGHIFSVIDAMNVLMDETGIERIHFHTYGYYLALTQYRGEEVRDALLFASLAAAAKAMKGNLERIEQIRDALSVPTNERAIVLEEELEKEFTEFENGLIDMVDRQLAFVPTKIVASPKSTVGIGDTISSSAFVSEFGMRKR,soluble
5,MKEYIAFDIGGTQIKYGIVSEIGRVLKRQTVATEIHLGGEQIIQKLIYVSKKIMNEHTITGIGISTAGIVDINKGIVTGGADHIPGYSTIPIIDRLQEILKVPVSIDNDVNCAAFGEKWNGSGREKDNFIMLTLGTGIGGAIFIDGKLYRGHSFSAGEWGNMLIEEKTFEEVASISGLIRLVSKYKGKGKWNGKRIFELYDKGDREVAQAVGIFFKHLAIGISNLAYIFNPETIIIGGGITDRGNEFLKEVKEEVSKYLNQEIYNNCEIELAQNGNCAGMIGAIYHFLHHHK,not soluble
6,MKEYRLTDWLPTTKKEVELRGWDELDVILFSGDAYVDHPSFGAAVIGRILEAEGLKVAIIPQPNWRDDLRDFRKLGRPRLFFGISAGSMDSMVNKYTANKRLRSEDAYTPDGRPDMRPEYPSIVYSQILKRLYPDVPVILGSIEASLRRLSHYDYWQDKVQKSILCDSGADLLIYGMGEKPIVELTRKMKELLPAEDASLTAGELKKIAGTIPQTAYLCRATEWTPAADDIQLYSHEECLADKKKQASNFRHIEEESNKYAASRITQEVDNKVVVVNPPYPPMSQEELDHSYDLPYTRLPHPKYKGKRIPAYDMIKFSVNIHRGCFGGCAFCTISAHQGKFIVSRSKKSILNEVKEVMQLPDFKGYLSDLGGPSANMYQMKGKDEAICKKCKRPSCIHPKVCPNLNSDHCPLLDIYKAVDAIPGIKKSFIGSGVRYDLLLHQSKDAATNRSTAEYTRELIVNHVSGRLKVAPEHTSDRVLSIMRKPSFEQFETFKKIFDRINREENLRQQLIPYFISSHPGCKEEDMAELAVITKRLDFHLEQVQDFTPTPMTVATEAWYSGFHPYTLEPVFSAKTQREKLAQRQFFFWYKPEERKNILNELRRIGRQDLIDKLYGKRNK,not soluble
7,MKFDKPAGENPIDQLKVVGRPHDRIDGPLKTTGTARYAYEWHEEAPNAAYGYIVGSAIAKGRLTALDTDAAQKAPGVLAVITASNAGALGKGDKNTARLLGGPTIEHYHQAIALVVAETFEQARAAASLVQAHYRRNKGAYSLADEKQAVNQPPEDTPDKNVGDFDGAFTSAAVKIDATYTTPDQSHMAMEPHASMAVWDGNKLTLWTSNQMIDWCRTDLAKTLKVPVENVRIISPYIGGGFGGKLFLRSDALLAALAARAVKRPVKVMLPRPSIPNNTTHRPATLQHLRIGADQSGKITAISHESWSGNLPGGTPETAVQQSELLYAGANRHTGLRLATLDLPEGNAMRAPGEAPGLMALEIAIDELAEKAGIDPVEFRILNDTQVDPADPTRCFSRRQLIECLRTGADKFGWKQRNATPGQVRDGEWLVGHGVAAGFRNNLLEKSGARVHLEQNGTVTVETDMTDIGTGSYTILAQTAAEMLGVPLEQVAVHLGDSSFPVSAGSGGQWGANTSTSGVYAACMKLREMIASAVGFDPEQSQFADGKITNGTRSATLHEATAGGRLTAEESIEFGTLSKEYQQSTFAGHFVEVGVHSATGEVRVRRMLAVCAAGRILNPKTARSQVIGAMTMGMGAALMEELAVDDRLGYFVNHDMAGYEVPVHADIPKQEVIFLDDTDPISSPMKAKGVGELGLCGVSAAIANAVYNATGIRVRDYPITLDKLLDKLPDVV,not soluble
8,MKFDPTSPSLNIMLANPRGFCAGVDRAISIVERALELFSPPIYVRHEVVHNRYVVQNLKDRGAVFVEELDQVPDNNIVIFSAHGVSQAVRAEAKARGLRVFDATCPLVTKVHLQVTRASRKGIECILIGHAGHPEVEGTMGQYDNPNGGVYLIESPADVETLEVRDPNNLCFVTQTTLSVDDTLDIISALLKRFPSIEGPRKDDICYATQNRQDAVRNLSADVDLLIVVGSKNSSNSNRLRELALKTGTQSYLVDTADDIDSSWFENITKVAVTAGASAPEVLVQQVVQAIAKLAPSVVTEVEGRKEDTVFAVPAELR,soluble
9,MKFKELSPSTYAEEFIRSKILVEEDGTAIKSQRELSADLGVSRNAIKYALKRLQYDGDIRIKERQGIEINKKRDINLLSMEPMSKELKQAEMHIKHISSEIIKTPDSLVDFFGNATELAEIKRIRLDDKDVVSFEISYLDNRKFEDIASVNFNECSLYQILENRYGKLPIYGYENITCVLANESLATKLNVKINTPLYQVDSYNYSDDDKAVEHTAQFLPANKIKYHFKAKNIFDYQEDDDDDII,not soluble
10,MKFKLFLGSSFFGVATLLIACGTGRFDQIDDGKIKLAVVTSPSAASSLQTLLDQYNNTKAPADYPVEVVSLDSTGSYTKGKFDTQKRLAAKDKNNFYN,not soluble
11,MKFLTFVNRVDWWLNVKKLLMGNEAIAYGALEAGVSFATGYPGTPSTEVIETIARLKPEVFAEWAPNEKVALEEAAGVSYAGLRSLVTMKCVGLNVAADPLMSLAYSGVEGGLVILVADDPGPHTSQTEQDDRYYGKLALLPVLEPYDPQEAHDLIIYAYELSEKYKVPIIFRTTTRVNHTTADVEVGEFKELKREPKFKKDIERYVRASMEGNRKRHKWLNETLKRIEEEFNTLRFNWIEGEGRVGIIVEGAPYNYVKEVVPQIEEDFKILKLSTPHPLPRKLVVEFLRSVDVALVVEEGAPFLEEEIKVVAYEEGLNVPIYGKRTGHLPLEGELTPRLVRNAILKLLGKEREEVKLPKEVEEAKALAPKRPPVMCPGCPHRGTYRALLDALRELGYGKFDIPIHGDIGCYALSLLPPLEAIWTEFVMGASISLANGQSVAMGKKIVATIGDSTFFHNGIQPLIDAVYKDLDVLVIILDNRTTAMTGHQPHPGTGGSETGRKFREIDIESVVRGIGVKYVKTVDPYNLKETKEAIKEAMKVKGPAVIIAKRECVIPVIRRGEIGEIPVVVEDRCTGCKACILLTGCPALVYEPEKKKVRIDPLICTGCGVCNQLCPFDAI,not soluble
12,MKFPGQRKSKHYFPVHARDPLVIQAQENKKMSRTHIIGIDQTLVDIEAKVDSDLIERYGLSKGHSLVIDDHAAEALYNELKEQRLITNEYAGGTIGNTLHNYSVLADDRSTLLGVMSQDIKIGSYGYRYLCNTSSRMDLNYLQGVDGAIGRCFALITEDGERTFAISEGQMNQLRPDSIPEKIFASASALVITAYLVRCKEGDPMPEATMRAIEYAKKYDVPVVLTLGTKFVIQDDPKFWQEFLRDHVTVVAMNEDEALALTGESDPLAASDKALDWVDLVLCTAGPVGLFMAGYTEDSAKRETSLPLLPGSVPEFNRYEFSRPARKESCINPIRVYSHISPYMGGPEKIKNTNGAGDAALSALLHDMAANKYHKENVPNSSKHQHEFLTYSSFSQVCKYSNRASYEVLAQHSPRLSRGLPEREDSLEEAYWER,not soluble
13,MKFPGQRKSKHYFPVHTRDPLVNQINQTPKLERTHLIGVGQTIVDIEAKVDDDFLNRHQLSKGHSLVLEESKAEALYKELFERNLISHEYPGDTIGNTLHNYSVLADSKSILLGVMSEDIKIGSYAYRYLCNTTSRMDLDYLQPVQGPIGRCYTLISEDGERTFAINEGDMNQLCPTHVPEHIFEKASALVISSYLVRGKEGDPMMDAVRKAIDCAKSHNVPVVLTLGTKYVIEGKAEWWQTFLKENVTVVAMNEEEAEALTGEKDPLLAADKALEWVDLVLCTAGPIGLYMAGFTEESIKRETSKPLLPGNIPEFNRFEYSRPMVKALCKKPIKVSSHIAPYMGGPVEIKNTNGAGDAALSALLHDMAANYYHKENVPNSSKHDAEYLTYSSFSQICKYSNRASYEVLTQHSPRLSKSMPEREDCLEEAYWER,not soluble
14,MKHLVICIALLTVGACCFAQQKKVASHKAASGNPVFQGWYADPEGIIYDDTYWIFPTWSDLYENQTFFDCFSSKDLVNWTKHASVLDTTAVKWAKKAMWAPSVIRKNGKYYIFFGANDVHEGEIGGIGVAVSDRPEGPYKDLLGKPLINEIVNGAQPIDQFVYNDNGHYYMYYGGWGHCNVVQLNDDFTGLVPFEDGTVYKEVTPENYVEGPFMFKKDGKYYFMWSEGGWGGPDYSVAYAISDSPFGPFKRVAKILQQDPSVATSAGHHSLLHAPGTDDYYIVYHRRPLNDNARDHRVTCIDKMTFDKDGFINPVKMTFEGVPAQKIKKSKKK,not soluble
15,MKIAIVTDSTAYLPERIKDHPNLFVIPIPVILDGKIYNEGIDIEADEYYALLNNSKEFPTTSQPALGEVLELYKSIAEQGYDTIISIHLSSGISGFVHTLHGLTDEIPGVALYPYDSKITSMPMGHMVEAALDLTEEKASLEEIFAKLDLIRDNTYAYLIVEDLNNLVRGGRLTNGAALIAGLLKIKPILTFEDGKIVLFEKIRSTKKAFARAEKIIGERNAGIEAPVKLYVIHANNRIVAEKEQAKLQKLYPNAEIEIGHFGPVIGTHLGEKAIGLAISAQ,not soluble
16,MKIAVLGATGRAGSAIVAEARRRGHEVLAVVRDPQKAADRLGATVATLVKEPLVLTEADLDSVDAVVDALSVPWGSGRGYLHLDFATHLVSLLRNSDTLAVFILGSASLAMPGADHPMILDFPESAASQPWYDGALYQYYEYQFLQMNANVNWIGISPSEAFPSGPATSYVAGKDTLLVGEDGQSHITTGNMALAILDQLEHPTAIRDRIVVRLEHHHHHH,not soluble
